The test system of one test is HCT116/MUC1 cells. Kind of test: Apoptosis assay (sub-G1 DNA content) after siRNA transfection and CDDP treatment. Type of test: cell-based, human. The following applies: CDDP 100 μM. The procedure:
(§1) Cell culture and transfection: Human colon cancer HCT116 cells and human non-small lung cancer A549 were grown in Dulbecco's modified Eagle's medium (DMEM) and RPMI1640 medium, respectively, in a humidified 5% CO2 atmosphere at 37° C. Media were supplemented with 10% fetal bovine serum (FBS), 100 units/ml of penicillin and 100 μg/ml of streptomycin. HCT116 cells were transfected with pIRES-puro2 or pIRES-puro2-MUC1 as described (Li et al., 2001(a)) and stable transfectants were selected in the presence of 0.4 μg/ml puromycin (Caliochem-Novabiochem).
(§2) A nonspecific scrambled control siRNA (SCRsiRNA) was also synthesized (targeted sequence: 5′-[…]-3′) (Dharmacon, Inc.). Cells were plated, grown in antibiotic-free medium overnight, and then transiently transfected with siRNAs (0.2-20 nM) using Oligofectamine reagent (Invitrogen Life Technology, Inc.) and Opti-MEM 1 reduced serum medium (Invitrogen Life Technology, Inc.) according to the manufacturer's instructions.
(§3) Apoptosis assay: At 48 hr after siRNA transfection, cells were treated with 0, 10 or 100 μM cisplatin (CDDP, Sigma) for 24 hr to induce apoptosis. Apoptotic cells were quantified by analysis of sub-G1 DNA content. Cells were harvested, washed, with PBS, fixed with 75% ethanol, and incubated in PBS containing 200 μg/ml RNase A (Qiagen) for 15 min at 37° C. […] DNA content was analyzed by flow cytometry (EPICS XL-MCL, Coulter Corp.).

The next test deals with HCT116/vector cells. The test is described as above. Type of test: cell-based, human. The following applies: CDDP 100 μM. The procedure:
as §1, §2, §3

Test [1] has as its system HCT116 cells transfected with MUC1ΔSANL. Kind of test: Visualization of viable cells after cisplatin in transfected HCT116 cells. Type of test: cell-based, human. The following applies: 100 μM cisplatin, 24 and 48 hr. The procedure:
Human HCT116 colon carcinoma cells (ATCC, Manassas, Va.) were cultured in Dulbecco's modified Eagle's medium/F12 with 10% heat-inactivated fetal bovine serum, 100 units/ml penicillin, […] streptomycin and 2 mM L-glutamine. HCT116 cells were transfected with pIRES-puro2, pIRESpuro2-MUC1 or pIRES-puro2-MUC1ΔSANL (MUC1 with the four carboxyl terminal amino acids […] deleted) as described (Li et al., 2001). Stable transfectants were selected in the presence of 0.4 mg/ml puromycin (Calbiochem-Novabiochem, San Diego, Calif.).
Cells were incubated with 100 μM cisplatin (CDDP; Sigma), for 24 and 48 hr.

A further test deals with T1, HtrA2 (Homo sapiens, UniProt O43464).
T1 construct: purchased Panomics Inc
T1 sequence (O43464 364-445 limits assumed): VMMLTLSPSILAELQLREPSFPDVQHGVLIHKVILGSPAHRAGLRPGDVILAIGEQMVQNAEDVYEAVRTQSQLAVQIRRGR
The test can be described thus: TransSignal PDZ Domain Array: binding of His-tagged MUC1/CD to immobilized PDZ domain, without or with 7-mer peptide. As for the experimental part: (§4) The ability of the MUC1 cytoplasmic domain (CD) to interact with a panel of 28 human PDZ domain proteins was screened. A His-tagged MUC1/CD was produced to affect the screening. The CD of MUC1 was amplified by RT-PCR from cDNA derived from human breast cancer MCF7 cells. The MUC1/CD gene was cloned into a bacterial vector pEXP (Panomics Inc.) to generate a His-tagged fusion protein (pEXP/MUC1/CD). DH5α E. Coli cells were transformed with pEXP/MUC1/CD and incubated overnight in 1 ml of LB medium containing 100 μg/ml ampicillin (LB/AMP). Eighty μl of the overnight culture was transferred to a tube of 4 ml of LB/AMP and allowed to grow until an OD600 of approximately 0.5-0.8 was evident. IPTG was added to the culture at a final concentration of 0.5 mM to induce expression of the His-tagged MUC1/CD protein. After 4 hours, cells were harvested in 1× resuspension buffer (Panomics Inc.) and lysed by sonication. The lysate was centrifuged at 14000 rpm for 5 minutes at 4° C. The resulting supernatant (bacterial extract) was collected and stored at −80° C. until use.
(§5) The TransSignal PDZ Domain Array kit (Panomics Inc.) was used comprising membranes on which the following 28 human PDZ proteins had been immobilized: MINT-2 d1, Mint-3 d1, Mint-3 d2, Mint-1 d1, Mint1 d2, CSKP, Dlg d1, Dlg1 d3, Dlg2 d2, Dlg4 d3, DVL1, DVL3, DVLL, GIPC, HtrA2, LIMK2, MPP2, NEB1, OMP25, hCLIM1, PTPH1, ZO-2 d1, hPTP1E d1, hPTP1E d5, RGS12, RIL, ZO-1 d3 and ZO-2 d3.
(§6) Membranes were submerged in a small tray with 20 ml of x1 blocking buffer (Panomics Inc.), and shaken at room temperature for 1 hour. The blocking buffer was removed and membranes rinsed twice with x1 Wash Buffer (Panomics inc.) at room temperature. The bacterial extract was diluted to a final concentration of 0.1 mg/ml in 20 ml Resuspension Buffer (Panomics Inc.). The membrane was incubated with the dilute bacterial extract overnight at 4° C. with gentle shaking. After incubation, the membrane was washed three times with 40 ml 1× Wash Buffer at room temperature for 10 minutes each wash. The membrane was then incubated with 20 ml diluted Anti-Histidine HRP Conjugate (Panomics inc., 1:3000 dilution in 1× Wash Buffer) at room temperature for 1 hour. The membrane was then washed with 40 ml 1× Wash Buffer at room temperature for 10 minutes each wash. The membrane was then visualized using […] ECL (Amersham Biosciences) utilizing the Detection Buffers as supplied by Panomics.
(§7) His-tagged MUC1/CD (bacterial extract) was incubated in the absence or presence of a 20-fold molar excess of the 7-mer peptide AAASANL (SEQ ID NO: 133) with the appropriate membrane-immobilized PDZ domain, as described above in Example 4.

Another test has as its target T2, Mint-1 d2 (Homo sapiens, UniProt Q02410).
T2 construct: Mint-1 d2 (XII protein, PDZ domain #2); purchased Panomics Inc
T2 sequence (Q02410 747-822 limits assumed): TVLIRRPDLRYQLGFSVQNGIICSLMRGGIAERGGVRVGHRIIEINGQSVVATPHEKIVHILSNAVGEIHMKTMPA
Described as above. As for the experimental part: as §4, §5, §6, §7

Another test concerns the target T3, Mint-2 d1 (Homo sapiens, UniProt Q99767).
T3 construct: Mint-2 d1(XIIL protein, PDZ domain #1); purchased Panomics Inc
T3 sequence (Q99767 568-654 limits assumed): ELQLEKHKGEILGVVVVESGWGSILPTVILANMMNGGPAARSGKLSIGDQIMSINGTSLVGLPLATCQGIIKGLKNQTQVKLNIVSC
The description is as above. The procedure:
as §4, §5, §6, §7

The target in a further test is T4, PTPH1 (Homo sapiens, UniProt P26045).
T4 construct: purchased Panomics Inc
T4 sequence (P26045 510-582 limits assumed): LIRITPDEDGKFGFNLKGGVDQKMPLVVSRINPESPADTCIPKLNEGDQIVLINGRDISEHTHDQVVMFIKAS
Described as above. As for the experimental part: as §4, §5, §6, §7

A further test concerns the target T5, RIL (Homo sapiens, UniProt P50479).
T5 construct: purchased Panomics Inc
T5 sequence (P50479 1-84 limits assumed): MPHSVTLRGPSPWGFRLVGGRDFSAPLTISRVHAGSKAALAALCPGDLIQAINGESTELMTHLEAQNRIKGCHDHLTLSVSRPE
The description is as above. As for the experimental part: as §4, §5, §6, §7

A further test addresses T6, OMP25 (Homo sapiens, UniProt P57105).
T6 construct: The TransSignal PDZ Domain Array kit (Panomics Inc.) was used; purchased Panomics Inc
T6 sequence (P57105 13-100 limits assumed): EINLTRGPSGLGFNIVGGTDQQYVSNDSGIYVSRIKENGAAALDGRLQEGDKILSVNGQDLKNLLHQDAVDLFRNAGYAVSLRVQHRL
The test can be described thus: TransSignal PDZ Domain Array: binding of His-tagged MUC1/CD to immobilized PDZ domain. The settings on record: bacterial extract 0.1 mg/ml, panel of 28 PDZ proteins. As for the experimental part:
as §4, with “use. […]” for “use.”

A further test relates to PDZ domains. Kind of test: Modified ELISA: profile (matrix) screen of biotinylated peptide against individual GST-PDZ domain fusion proteins. Type of test: binding, human. From the text:
Profile Results Peptides corresponding to the C-terminus were able to bind a number of PDZ domains in a concentration dependent manner. […] Identities of the interacting PDZ domains are listed directly above or next to the bar representing the absorbance in the assay.
The results, shown in FIGS. 11, 12 and 13, represent the absorbance and standard deviation of interactions of higher relative strength. The data in FIG. 13 for PDZK1, PTPL1 d5, MUPP1 d4 and INADL d1 have high standard deviations and thus require further verification to validate intensity of binding.

For test [2], the target named is T7, biotinylated TAT-MUC1 binding to RIM2 (Homo sapiens, UniProt Q9UQ26).
T7 construct: RIM2, PDZ domain 1: GI#: 12734165; made in house; host or cells: E. coli
T7 sequence (Q9UQ26 668-754 limits assumed): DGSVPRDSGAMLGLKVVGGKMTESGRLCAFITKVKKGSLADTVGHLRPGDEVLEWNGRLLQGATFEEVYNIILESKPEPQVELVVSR
The test can be described thus: Modified ELISA: competition with binding of biotinylated TAT-MUC1 peptide (SEQ ID NO: 134) to PDZ domain. The settings on record: FIG. 10, among three peptides.

Test [3] concerns the target T8, biotinylated TAT-MUC1 binding to ZO1 d2 (Homo sapiens, UniProt Q07157).
T8 construct: made in house; host or cells: E. coli
T8 sequence (Q07157 186-264 limits assumed): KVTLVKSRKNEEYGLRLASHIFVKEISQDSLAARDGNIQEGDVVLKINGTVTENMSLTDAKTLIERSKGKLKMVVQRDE
The description is as above.

The mark [4] stands for this setting: bacterial extract 0.1 mg/ml, panel of 28 PDZ proteins.

On to `[NH2][Pt]([NH2])([Cl])[Cl]` [CDDP, cisplatin], for which the “Sensitivity of cells to apoptosis induced by CDDP” value with HCT116/MUC1 cells is reported as “relatively resistant to apoptosis”; in the test with HCT116/vector cells it was “sensitive to apoptosis”. In [1], the “Sensitivity to CDDP-induced cell death relative to cells transfected with full length MUC1” value is on record as “substantially increase in the sensitivity to CDDP-induced cell death”.

As to AAASANL [7-mer peptide], the “Inhibition of binding of his-tagged MUC1/CD to PDZ domain” value in the test with HtrA2 (20-fold molar excess of 7-mer), with Mint-1 d2 (20-fold molar excess of 7-mer), with Mint-2 d1 (20-fold molar excess of 7-mer), in the test with PTPH1 (20-fold molar excess of 7-mer) and with RIL (20-fold molar excess of 7-mer) was “inhibited the binding” throughout.

“MUC1/CD: His-tagged fusion protein of the MUC1 cytoplasmic domain, used as bacterial extract”: the “Binding of his-tagged MUC1/CD to PDZ domain” value in the test with HtrA2 (setting [4]), with Mint-1 d2 (setting [4]), in the test with Mint-2 d1 (setting [4]), with PTPH1 (setting [4]), in the test with RIL (setting [4]) and with OMP25 was “Binding was observed” throughout.

With NGGSSLSYTNPAVAATSANL [MUC1 peptide], the “Interactions with higher absorbance readings in PDZ profile” value is recorded as “seven interactions are observed to give higher absorbance readings” in the test with PDZ domains (MUC1 peptide concentration 0.01 μm, FIG. 3) and “more interactions are observed” in the test on PDZ domains (MUC1 peptide concentration 0.1 μm, FIG. 4).

On to YGRKKRRQRRRARGDRKRIV [SEQ ID NO: 136], for which, in [2], the “Competitive inhibition of biotinylated SEQ ID NO: 134 (TAT-MUC1) binding” value is given as “best competitive inhibitor”. Further, the “Competition for binding of biotinylated SEQ ID NO: 134 (TAT-MUC1)” value in test [3] is “can also compete for binding”.

Source of the values: patent US20080090770A1, “Modulation of Muc1 Mediated Signal Transduction” (priority 2003, published 2008).
